{"source": "patent US20220220224A1", "about": "(Hoffmann-La Roche, published 2022)", "binders": {"B1": {"name": "36F2 IgG (antibody, V domains shown)", "VH": "QVQLVQSGAEVKKPGASVKVSCKASGYTFTSYYMHWVRQAPGQGLEWMGIINPSGGSTSYAQKFQGRVTMTHDTSTSTVYMELSSLRSEDTAVYYCARSFFTGFHLDYWGQGTLVTVSS", "VL": "EIVLTQSPGTLSLSPGERATLSCRASQSVSSSYLAWYQQKPGQAPRLLIYGASSRATGIPDRFSGSGSGTDFTLTISRLEPEDFAVYYCQQYTNEHYYTFGQGTKVEIK"}}, "key": {"[1]": {"target": "T1, human FolR1 expressed on cells (HeLa, SKOV3, HT-29, transfected HEK cells) (human, UniProt P15328 25-234)", "T1 construct": "whole, on cells; also called FolR1 on HeLa cells; human FolR1 on cells", "T1 sequence (P15328 25-234)": "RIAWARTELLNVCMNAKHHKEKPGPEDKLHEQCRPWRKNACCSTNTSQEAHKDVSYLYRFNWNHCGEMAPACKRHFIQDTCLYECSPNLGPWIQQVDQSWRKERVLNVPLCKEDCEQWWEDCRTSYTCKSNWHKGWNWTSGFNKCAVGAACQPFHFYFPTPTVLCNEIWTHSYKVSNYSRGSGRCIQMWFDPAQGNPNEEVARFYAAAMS", "assay": "flow cytometry on transfected HEK cells"}, "[2]": {"target": "T2, human FolR2 on transfected HEK cells (human, UniProt P14207 17-230)", "T2 construct": "whole, on cells", "T2 sequence (P14207 17-230)": "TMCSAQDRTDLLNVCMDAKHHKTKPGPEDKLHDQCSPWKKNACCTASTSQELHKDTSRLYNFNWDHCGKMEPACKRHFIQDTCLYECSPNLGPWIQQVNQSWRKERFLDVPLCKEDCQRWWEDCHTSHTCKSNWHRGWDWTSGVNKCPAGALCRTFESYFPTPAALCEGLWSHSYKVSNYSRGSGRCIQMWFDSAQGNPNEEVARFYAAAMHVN", "assay": "flow cytometry on transfected HEK cells"}, "[3]": {"target": "T3, recombinant biotinylated monomeric Fc fusion of cynomolgus Folate Receptor 1 (cy FolR1 ECD-AcTev-Fcknob-Avi … (cynomolgus, UniProt P0DOX5 223-449 = IgG part, biotin on the C-terminal Avi tag))", "T3 construct": "also called cyFolR1-Fc; cyno FolR1", "assay": "SPR Biacore, avidity (bivalent, apparent KD), antigen-Fc on SA chip", "method": "(§1) Binding of FolR1 binders as IgG or in the T-cell bispecific format to different recombinant folate receptors (human FolR1, 2 and 3, murine FolR1 and cynomolgus FolR1; all as Fc fusions) was assessed by surface plasmon resonance (SPR). All SPR experiments were performed on a Biacore T200 at 25° C. with HBS-EP as running buffer (0.01 M HEPES pH 7.4, 0.15 M NaCl, 3 mM EDTA, 0.005% Surfactant P20, Biacore, Freiburg/Germany).\n(§2) Recombinant biotinylated monomeric Fc fusions of human, cynomolgus and murine Folate Receptor 1 (FolR1-Fc) were directly coupled on a SA chip using the standard coupling instruction (Biacore, Freiburg/Germany). The immobilization level was about 300-400 RU. The anti-FolR1 IgGs or T cell bispecifics were passed at a concentration range from 2.1 to 500 nM with a flow of 30 μL/minutes through the flow cells over 180 seconds. The dissociation was monitored for 600 seconds. Bulk refractive index differences were corrected for by subtracting the response obtained on reference flow cell immobilized with recombinant biotinylated IL2 receptor Fc fusion. […] The binding curves resulting from the bivalent binding of the IgGs or T cell bispecifics were approximated to a 1:1 Langmuir binding and fitted with that model (which is not correct, but gives an idea of the avidity). The apparent avidity constants for the interactions were derived from the rate constants of the fitting using the Bia Evaluation software (GE Healthcare)."}, "[4]": {"target": "T4, recombinant biotinylated monomeric Fc fusion of human Folate Receptor 1 (huFolR1 ECD-AcTev-Fcknob-Avi tag … (human, UniProt P0DOX5 223-449 = IgG part, biotin on the C-terminal Avi tag))", "T4 construct": "also called huFolR1-Fc; human FolR1-Fc", "assay": "SPR Biacore, avidity (bivalent, apparent KD), antigen-Fc on SA chip", "method": "as §1, §2"}, "[5]": {"target": "T5, recombinant biotinylated monomeric Fc fusion of murine Folate Receptor 1 (mu FolR1 ECD-AcTev-Fcknob-Avitag … (murine, UniProt P0DOX5 223-449 = IgG part, biotin on the C-terminal Avi tag))", "T5 construct": "also called muFolR1-Fc; murine FolR1", "assay": "SPR Biacore, avidity (bivalent, apparent KD), antigen-Fc on SA chip", "method": "as §1, §2"}}}
{"binder": "B1", "values": [{"measurement": "binding result", "setting": "[1]", "value": "binds"}, {"measurement": "binding result", "setting": "[2]", "value": "no binding"}, {"measurement": "Kd", "setting": "[3]", "value": 5.31, "unit": "nM"}, {"measurement": "koff", "setting": "[3]", "value": 0.016, "unit": "s⁻¹"}, {"measurement": "kon", "setting": "[3]", "value": "3.02e+06", "unit": "M⁻¹ s⁻¹"}, {"measurement": "Kd", "setting": "[4]", "value": 5.74, "unit": "nM"}, {"measurement": "koff", "setting": "[4]", "value": 0.0151, "unit": "s⁻¹"}, {"measurement": "kon", "setting": "[4]", "value": "2.62e+06", "unit": "M⁻¹ s⁻¹"}, {"measurement": "Kd", "setting": "[5]", "value": 1.63, "unit": "nM"}, {"measurement": "koff", "setting": "[5]", "value": 0.000603, "unit": "s⁻¹"}, {"measurement": "kon", "setting": "[5]", "value": 370000, "unit": "M⁻¹ s⁻¹"}]}
